Experimental data: US20170174791A1 (RAMOT AT TEL AVIV UNIVERSITY, published 2017)

Target: bovine serum albumin (BSA) (bovine, UniProt P02769 25-607)
Assay: ELISA, BSA-coated plate, goat-anti-human HRP detection

bovine serum albumin (BSA), sequence (P02769 25-607 limits assumed): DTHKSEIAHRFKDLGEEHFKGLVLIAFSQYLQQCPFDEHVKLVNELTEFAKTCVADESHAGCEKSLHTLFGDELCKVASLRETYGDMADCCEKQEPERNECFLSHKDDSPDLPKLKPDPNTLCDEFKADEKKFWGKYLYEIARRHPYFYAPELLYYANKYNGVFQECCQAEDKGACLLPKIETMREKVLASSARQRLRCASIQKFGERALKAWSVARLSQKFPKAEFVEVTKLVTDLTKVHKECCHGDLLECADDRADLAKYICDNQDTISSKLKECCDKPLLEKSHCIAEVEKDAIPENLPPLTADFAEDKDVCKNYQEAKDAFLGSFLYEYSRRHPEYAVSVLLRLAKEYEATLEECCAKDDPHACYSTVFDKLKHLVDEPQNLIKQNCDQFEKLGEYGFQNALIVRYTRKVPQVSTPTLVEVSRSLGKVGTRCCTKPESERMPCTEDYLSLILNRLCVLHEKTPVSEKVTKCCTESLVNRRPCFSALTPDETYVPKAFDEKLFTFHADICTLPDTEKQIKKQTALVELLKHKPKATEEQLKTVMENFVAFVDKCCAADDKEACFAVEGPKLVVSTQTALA

B1: T427-αPE (B11 clone) IgG (bispecific, CD30 and PE38) (bispecific antibody)
light 1: not shown
heavy 1: not shown
light 2: MDIVLTQPPSASGTPGQRVTISCSGTSSDVGNSNLVSWYQQLPGTAPKLLIYGNSNRPSGVPDRFSGSKSGTSASLAISGLRSEDEADYYCCSYAGTGSPDVFGTGTKLTVLGQPKAAPSVTLFPPSSEELQANKATLVCLISDFYPGAVTVAWKADSSPVKAGVETTTPSKQSNNKYAASSYLSLTPEQWKSHRSYSCQVTHEGSTVEKTVAPAECS
heavy 2: MEVQLLETGGGLVQPGGSLRLSCAASGFTFDNYAINWVRQAPGKGLEWVSGISWNSGSIGYADSVKGRFTISRDNSKNTLYLQMNSLRAEDTAVYYCARGAPHYGGRGEFDFWGQGTLVTVSSASTKGPSVFPLAPSSKSTSGGTAALGCLVKDYFPEPVTVSWNSGALTSGVHTFPAVLQSSGLYSLSSVVTVPSSSLGTQTYICNVNHKPSNTKVDKRVEPKSCDKTHTCPPCPAPELLGRPSVFLFPPKPKDTLMISRTPEVTCVVVDVSHEDPEVKFNWYVDGVEVHNAKTKPREEQYNSTYRVVSVLTVLHQDWLNGKEYKCKVSNKALPAPIEKTISKAKGQPREPQVCTLPPSREEMTKNQVSLSCAVKGFYPSDIAVEWESNGQPENNYKTTPPVLDSDGSFFLVSKLTVDKSRWQQGNVFSCSVMHEALHNHYTQKSLSLSPGK
notes: also called T427-αPE (bispecific)
binding result: no binding
